Measurements as given in paper PMC8975821, “TOX4 facilitates promoter-proximal pausing and C-terminal domain dephosphorylation of RNA polymerase II in human cells” (Communications Biology, 2022).

Target: T1, 3× Flag-tagged TOX4 (UniProt O94842 1-621)
T1 construct: TOX4, cDNA cloned into pFASTBAC.1; Also used as the parent (on) of the region row from the co-IP with TOX4 fragments, whose own constructs are not described; also called 3× Flag-TOX4; source: High Five cells infected with baculovirus, purified (anti-Flag M2 magnetic beads, eluted with 3× Flag peptide); also purified from High Five cells as the TOX4-PP1α complex
T1 sequence (looked up): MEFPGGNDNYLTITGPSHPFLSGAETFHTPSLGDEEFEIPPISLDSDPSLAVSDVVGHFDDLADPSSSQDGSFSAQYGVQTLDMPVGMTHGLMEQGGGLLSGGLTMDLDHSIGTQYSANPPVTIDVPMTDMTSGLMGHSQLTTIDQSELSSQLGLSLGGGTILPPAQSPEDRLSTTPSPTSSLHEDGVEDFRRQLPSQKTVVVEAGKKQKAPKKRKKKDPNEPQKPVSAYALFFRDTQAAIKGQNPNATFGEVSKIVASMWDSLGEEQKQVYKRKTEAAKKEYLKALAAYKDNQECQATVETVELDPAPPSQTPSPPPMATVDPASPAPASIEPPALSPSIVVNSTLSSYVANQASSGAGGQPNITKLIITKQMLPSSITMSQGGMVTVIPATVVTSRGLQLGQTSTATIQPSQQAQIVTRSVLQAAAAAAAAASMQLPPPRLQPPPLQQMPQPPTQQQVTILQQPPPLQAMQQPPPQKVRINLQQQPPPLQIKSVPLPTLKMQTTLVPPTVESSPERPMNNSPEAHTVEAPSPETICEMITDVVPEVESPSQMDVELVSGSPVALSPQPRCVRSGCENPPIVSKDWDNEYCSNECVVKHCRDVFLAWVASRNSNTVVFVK
Test: co-IP; in vitro binding assay of individually purified TOX4 and PP1α, β or γ; PP1 co-immunoprecipitated with TOX4; Western blot, quantified by ImageJ
Conditions: both partners purified

B1: His-tagged PP1β (enzyme, UniProt P62140 1-327, looked up)
chain: MADGELNVDSLITRLLEVRGCRPGKIVQMTEAEVRGLCIKSREIFLSQPILLELEAPLKICGDIHGQYTDLLRLFEYGGFPPEANYLFLGDYVDRGKQSLETICLLLAYKIKYPENFFLLRGNHECASINRIYGFYDECKRRFNIKLWKTFTDCFNCLPIAAIVDEKIFCCHGGLSPDLQSMEQIRRIMRPTDVPDTGLLCDLLWSDPDKDVQGWGENDRGVSFTFGADVVSKFLNRHDLDLICRAHQVVEDGYEFFAKRQLVTLFSAPNYCGEFDNAGGMMSVDETLMCSFQILKPSEKKAKYQYGGLNSGRPVTPPRTANPPKKR
notes: PP1β, catalytic subunit of protein phosphatase 1 beta; cDNA cloned into pFASTBAC.1; also called His-PP1β; source: High Five cells infected with baculovirus, purified (HisPur Ni-NTA magnetic beads, imidazole elution)
B1: binds.
